In assay [1] the target is IR peptide (N-terminal IR; rest of sequence not given). In words: binder-on-chip, run 94158.
Assay [2] has the same target. In words: binder-on-chip single-molecule assay.
For assay [3], the target named is IA peptide (N-terminal isoleucine, penultimate alanine; rest of sequence not given). In words: binder-on-chip single-molecule assay.
Assay [4] concerns the target T1, N-terminal leucine peptide ….
T1 sequence (peptide): LAAIAAFAADDDW
In words: peptide-on-chip recognition assay, dye-labelled PS372.

For assay [5], the target named is T2, LA peptide (N-terminal leucine, penultimate alanine; rest of sequence not given). In words: binder-on-chip single-molecule assay.
For assay [6], the target named is T2, LA peptide (N-terminal leucine, …). In words: stopped-flow, complex mixed with excess unlabelled trap peptide.
Assay [7] deals with FA peptide (N-terminal phenylalanine, penultimate alanine; rest of sequence not given). The assay is described as above.
Assay [8] deals with peptide having an N-terminal tryptophan residue (rest of sequence not given).
The target of assay [9] is peptide having an N-terminal (unmodified) tyrosine residue (rest of sequence not given).
In assay [10] the target is polypeptide with a terminal leucine residue (rest of sequence not given).
In assay [11] the target is peptide having an N-terminal phenylalanine residue (rest of sequence not given).
Assay [12] has as its target fluorescently-labeled peptide containing N-terminal phospho-tyrosine. In words: single-molecule, SH2 variant immobilized in sample wells, labeled peptide in solution; top panel.
Assay [13] concerns the target peptide containing N-terminal phospho-serine. In words: negative control, single-molecule, SH2 variant immobilized, labeled phospho-serine peptide in solution; top trace.
In assay [14] the target is fluorescently-labeled peptide containing N-terminal phospho-tyrosine. In words: single-molecule, SH2 variant immobilized in sample wells, labeled peptide in solution; middle plot (middle trace of FIG. 22A).
In assay [15] the target is peptide containing N-terminal phospho-serine. In words: negative control, single-molecule, SH2 variant immobilized, labeled phospho-serine peptide in solution; middle trace.
The target in assay [16] is fluorescently-labeled peptide containing N-terminal phospho-tyrosine. In words: single-molecule, SH2 variant immobilized in sample wells, labeled peptide in solution; bottom panel.
Assay [17] addresses peptide containing N-terminal phospho-serine. In words: negative control, single-molecule, SH2 variant immobilized, labeled phospho-serine peptide in solution; bottom trace.
In assay [18] the target is fluorescently-labeled peptide containing N-terminal phospho-tyrosine. In words: single-molecule, SH2 variant immobilized in sample wells, labeled peptide in solution; bottom plot (bottom trace of FIG. 22A).
Assay [19] has the same target. In words: single-molecule, SH2 variant immobilized in sample wells, labeled peptide in solution; top plot (top trace of FIG. 22A).

B1: PS372 (ClpS homolog) (protein)
chain: MAFPARGKTAPKNEVRRQPPYNVILLNDDDHTYRYVIEMLQKIFGFPPEKGFQIAEEVDRTGRVILLTTSKEHAELKQDQVHSYGPDPYLGRPCSGSMTCVIEPAV
B1 gave a Median pulse width in assay [1] of 64 ms. In addition, the mean pulse width stood at 86 ms in [1], 957 ms in [4] and 876 ms in assay [5]. Also, the values for the pulse duration in [2] and in [3] were 83 ms and 70 ms, respectively.

B2: PS696 (PS557-SNAP TAG fusion) (designed binder)
chain: MPTAASATESAIEDTPAPARPEVDGRTKPKRQPRYHVVLWNDDDHTYQYVVVMLQSLFGHPPERGYRLAKEVDTQGRVIVLTTTREHAELKRDQIHAFGYDRLLARSKGSMKASIEAEEGSAGSAAGSGEFMDKDCEMKRTTLDSPLGKLELSGCEQGLHEIKLLGKGTSAADAVEVPAPAAVLGGPEPLMQATAWLNAYFHQPEAIEEFPVPALHHPVFQQESFTRQVLWKLLKVVKFGEVISYQQLAALAGNPAATAAVKTALSGNPVPILIPCHRVVSSSGAVGGYEGGLAVKEWLLAHEGHRLGKPGLGGSAGSAAGSGEFHHHHHHHHHHGGGSGGGSGGGSGLNDFFEAQKIEWHEGGGSGGGSGGGSGLNDFFEAQKIEWHE
In the case of B2, the koff (usually the first-order rate constant of dissociation) in assay [6] came out at 0.15 s⁻¹.

B3: PS705 (atClpS2-V1-SNAP TAG fusion 2) (designed binder)
chain: MSDSPVDLKPKPKVKPKLERPKLYKVMLLNDDYTPMSFVTVVLKAVFRMSEDTGRRVMMTAHRFGSAVVVVCERDIAETKAKEATDLGKEAGFPLMFTTEPEEHHHHHHHHHHGGGSGGGSGGGSGLNDFFEAQKIEWHEGGGSGGGSGGGSGLNDFFEAQKIEWHEGSAGSAAGSGEFMDKDCEMKRTTLDSPLGKLELSGCEQGLHEIKLLGKGTSAADAVEVPAPAAVLGGPEPLMQATAWLNAYFHQPEAIEEFPVPALHHPVFQQESFTRQVLWKLLKVVKFGEVISYQQLAALAGNPAATAAVKTALSGNPVPILIPCHRVVSSSGAVGGYEGGLAVKEWLLAHEGHRLGKPGLG
In assay [7], B3 had a koff of 1.27 s⁻¹.

B4: PS706 (atClpS2-V1-EF fusion) (designed binder)
chain: MSDSPVDLKPKPKVKPKLERPKLYKVMLLNDDYTPMSFVTVVLKAVFRMSEDTGRRVMMTAHRFGSAVVVVCERDIAETKAKEATDLGKEAGFPLMFTTEPEEGSAGSAAGSGEFMIKKYTGDFETTTDLNDCRVWSWGVCDIDNVDNITFGLEIDSFFEWCEMQGSTDIYFHDEKFDGEFMLSWLFKNGFKWCKEAKEERTFSTLISNMGQWYALEICWNVKCTTTKTGKTKKEKQRTIIYDSLKKYPFPVKEIAEAFNFPIKKGEIDYTKERPIGYNPTDDEWDYLKNDIQIMAMALKIQFDQGLTRMTRGSDALGDYQDWVKTTYGKSRFKQWFPVLSLGFDKDLRKAYKGGFTWVNKVFQGKEIGEGIVFDVNSLYPSQMYVRPLPYGTPLFYEGEYKENIDYPLYIQNIKVRFRLKERHIPTIQVKQSSLFIQNEYLESSVNKLGVDELIDLTLTNVDLDLFFEHYDILEIHYTYGYMFKASCDMFKGWIDKWIEVKNTTEGARKANAKGMLNSLYGKFGTNPDITGKVPYMGEDGIVRLTLGEEELRDPVYVPLASFVTAWGRYTTITTAQRCFDNIIYCDTDSIHLTGTEVPEAIEHLVDSKKLGYWKHESTFQRAKFIRQKTYVEEIDGELNVKCAGMPDRIKELVTFDNFEVGFSSYGKLLPKRTQGGVVLVDTMFTIKGSAGSAAGSGEFHHHHHHHHHHGGGSGGGSGGGSGLNDFFEAQKIEWHEGGGSGGGSGGGSGLNDFFEAQKIEWHE
In turn, B4 registered a koff in assay [7] of 0.589 s⁻¹.

B5: Agrobacterium tumifaciens ClpS1 (atClpS1) (protein)
chain: MIAEPICMQGEGDGEDGGTNRGTSVITRVKPKTKRPNLYRVLLLNDDYTPMEFVIHILERFFQKDREAATRIMLHVHQHGVGECGVFTYEVAETKVSQVMDFARQHQHPLQCVMEKK
As for B5, the mean pulse duration (dashed line of the distribution) in assay [8] was determined as 0.34 s; in [9], 0.69 s; in assay [10] it was 0.31 s; in [11], 0.59 s.

B6: PS698 (PS557-SNAP TAG fusion 2) (designed binder)
chain: MPTAASATESAIEDTPAPARPEVDGRTKPKRQPRYHVVLWNDDDHTYQYVVVMLQSLFGHPPERGYRLAKEVDTQGRVIVLTTTREHAELKRDQIHAFGYDRLLARSKGSMKASIEAEEHHHHHHHHHHGGGSGGGSGGGSGLNDFFEAQKIEWHEGGGSGGGSGGGSGLNDFFEAQKIEWHEGSAGSAAGSGEFMDKDCEMKRTTLDSPLGKLELSGCEQGLHEIKLLGKGTSAADAVEVPAPAAVLGGPEPLMQATAWLNAYFHQPEAIEEFPVPALHHPVFQQESFTRQVLWKLLKVVKFGEVISYQQLAALAGNPAATAAVKTALSGNPVPILIPCHRVVSSSGAVGGYEGGLAVKEWLLAHEGHRLGKPGLG
On to B6, for which the koff in assay [6] amounted to 0.19 s⁻¹.

B7: PS703 (atClpS2-V1-SNAP TAG fusion) (designed binder)
chain: MSDSPVDLKPKPKVKPKLERPKLYKVMLLNDDYTPMSFVTVVLKAVFRMSEDTGRRVMMTAHRFGSAVVVVCERDIAETKAKEATDLGKEAGFPLMFTTEPEEGSAGSAAGSGEFMDKDCEMKRTTLDSPLGKLELSGCEQGLHEIKLLGKGTSAADAVEVPAPAAVLGGPEPLMQATAWLNAYFHQPEAIEEFPVPALHHPVFQQESFTRQVLWKLLKVVKFGEVISYQQLAALAGNPAATAAVKTALSGNPVPILIPCHRVVSSSGAVGGYEGGLAVKEWLLAHEGHRLGKPGLGGSAGSAAGSGEFHHHHHHHHHHGGGSGGGSGGGSGLNDFFEAQKIEWHEGGGSGGGSGGGSGLNDFFEAQKIEWHE
With B7, the off-rate (koff) in assay [7] was found to be 0.767 s⁻¹.

B8: H. sapiens Fyn SH2 domain triple mutant superbinder (designed binder)
chain: MGAMDSIQAEEWYFGKLGRKDAERQLLSFGNPRGTFLIRESETVKGAYALSIRDWDDMKGDHVKHYLIRKLDNGGYYITTRAQFETLQQLVQHYSERAAGLSSRLVVPSHK
B8 returned a mean pulse duration (dashed line of the distribution) in assay [12] of 0.26 s. For the same molecule, the pulse duration, M (median) of one trace in assay [13] came out at 0.09 s; in assay [14], 0.15 s; in assay [15], 0.11 s; in [17], 0.1 s; in assay [18] it was 0.17 s; in assay [19], 0.15 s. Besides, the pulse duration, μ (mean) of one trace in [13] turned out to be 0.09 s; in assay [14], 0.23 s; in [15], 0.15 s; in assay [17], 0.16 s; in assay [18], 0.26 s; in assay [19] it was 0.25 s. The molecule further returned a mean interpulse duration (dashed line of the distribution) in assay [16] of 0.51 s.

B9: PS704 (atClpS2-V1-2xSNAP TAG fusion) (designed binder)
chain: MSDSPVDLKPKPKVKPKLERPKLYKVMLLNDDYTPMSFVTVVLKAVFRMSEDTGRRVMMTAHRFGSAVVVVCERDIAETKAKEATDLGKEAGFPLMFTTEPEEGSAGSAAGSGEFMDKDCEMKRTTLDSPLGKLELSGCEQGLHEIKLLGKGTSAADAVEVPAPAAVLGGPEPLMQATAWLNAYFHQPEAIEEFPVPALHHPVFQQESFTRQVLWKLLKVVKFGEVISYQQLAALAGNPAATAAVKTALSGNPVPILIPCHRVVSSSGAVGGYEGGLAVKEWLLAHEGHRLGKPGLGMDKDCEMKRTTLDSPLGKLELSGCEQGLHEIKLLGKGTSAADAVEVPAPAAVLGGPEPLMQATAWLNAYFHQPEAIEEFPVPALHHPVFQQESFTRQVLWKLLKVVKFGEVISYQQLAALAGNPAATAAVKTALSGNPVPILIPCHRVVSSSGAVGGYEGGLAVKEWLLAHEGHRLGKPGLGGSAGSAAGSGEFHHHHHHHHHHGGGSGGGSGGGSGLNDFFEAQKIEWHEGGGSGGGSGGGSGLNDFFEAQKIEWHE
In assay [7], B9 displayed a koff of 0.677 s⁻¹.

B10: Planctomycetia bacterium ClpS homolog (PS557) (protein)
chain: MPTAASATESAIEDTPAPARPEVDGRTKPKRQPRYHVVLWNDDDHTYQYVVVMLQSLFGHPPERGYRLAKEVDTQGRVIVLTTTREHAELKRDQIHAFGYDRLLARSKGSMKASIEAEE
In assay [6], B10 displayed a koff of 0.22 s⁻¹.

The values are drawn from patent publication US20210364527A1.
